Consider 34 molecules from patent USRE47150 (Bayer, dated 2018).

Residue numbers refer to the chain shown, from its start. In names and notes the source's numbering stands.

First the molecules themselves.
B1: 4B7 HC D62Q+H107M+Y112D/LC D33F+N35I (Fab, V domains shown)
VH: QVQLQQSGPGLVKPSQTLSLTCAISGDSVSSNSAAWSWIRQSPGRGLEWLGIIYKRSKWYNQYAVSVKSRITINPDTSKNQFSLQLNSVTPEDTAVYYCARWHSDKMWGFDDWGQGTLVTVSS
VL: DIVMTQSPLSLPVTPGEPASISCRSSQSLVFSFGITYLNWYLQKPGQSPQLLIYKGSNRASGVPDRFSGSGSGTDFTLKISRVEAEDVGVYYCQQYDSYPLTFGQGTKVEIKR
B2: 4B7 HC N32D+D62R+H103D/LC F31I+D33R (Fab, V domains shown)
VH: B1 VH with N32D, Q62R, H103D, M107H, D112Y
VL: B1 VL with F31I, F33R, I35N
B3: 4B7 HC N32D+D62Q+H107M+Y112D/LC S32R+D33R (Fab, V domains shown)
VH: B1 VH with N32D
VL: B1 VL with S32R, F33R, I35N
B4: 4B7 HC N32D+D62Q+Y112D/LC F31I+D33F+N35I+T36N (Fab, V domains shown)
VH: B1 VH with N32D, M107H
VL: B1 VL with F31I, T36N
B5: 4B7 HC N32D+D62Q+H107M+Y112D/LC N35I (Fab, V domains shown)
VH: B1 VH with N32D
VL: B1 VL with F33D
B6: 4B7 HC N32D+D62Q+Y112D/LC V30L+F31I+D33F+N35I (Fab, V domains shown)
VH: B1 VH with N32D, M107H
VL: B1 VL with V30L, F31I
B7: 4B7 HC D62R+H107M+Y112D/LC S32R+D33F+N35I (Fab, V domains shown)
VH: B1 VH with Q62R
VL: B1 VL with S32R
B8: 4B7 HC N32D+D62Q+Y112D/LC S32R+D33R+N35I+D97T (Fab, V domains shown)
VH: B1 VH with N32D, M107H
VL: B1 VL with S32R, F33R, D97T
B9: 4B7 HC N32D+D62R+H103D+H107M+Y112D/LC S32R+N35T (Fab, V domains shown)
VH: B1 VH with N32D, Q62R, H103D
VL: B1 VL with S32R, F33D, I35T
B10: 4B7 HC D62R+H107M+Y112D/LC D33F+N35I (Fab, V domains shown)
VH: B1 VH with Q62R
VL: B1 VL
B11: 4B7 HC N32D+D62Q+H107M+Y112D/LC F31M+S32R+D33F+N35I+D97T (Fab, V domains shown)
VH: B1 VH with N32D
VL: B1 VL with F31M, S32R, D97T
B12: 4B7 HC N32D+D62Q+Y112D/LC S32R+D33F+N35I+D97T (Fab, V domains shown)
VH: B1 VH with N32D, M107H
VL: B1 VL with S32R, D97T
B13: 4B7 HC N32D+D62Q+H107M+Y112D/LC S32R+D33F (Fab, V domains shown)
VH: B1 VH with N32D
VL: B1 VL with S32R, I35N
B14: 4B7 HC N32D+D62Q+Y112D/LC F31I+D33F+N35I+D97T (Fab, V domains shown)
VH: B1 VH with N32D, M107H
VL: B1 VL with F31I, D97T
B15: 4B7 HC D62R+H107M+Y112D/LC N35T+D97T (Fab, V domains shown)
VH: B1 VH with Q62R
VL: B1 VL with F33D, I35T, D97T
B16: 4B7 HC D62R+Y112D/LC S32R+D33F+N35I (Fab, V domains shown)
VH: B1 VH with Q62R, M107H
VL: B1 VL with S32R
B17: 4B7 HC D62S+H107M+Y112D/LC S32R+D33F+N35I (Fab, V domains shown)
VH: B1 VH with Q62S
VL: B1 VL with S32R
B18: 4B7 HC D62Q+Y112D/LC S32R+D33F+N35I (Fab, V domains shown)
VH: B1 VH with M107H
VL: B1 VL with S32R
B19: 4B7 HC D62R+H107M+Y112D/LC F31I+S32R+D33F+N35I+D97T (Fab, V domains shown)
VH: B1 VH with Q62R
VL: B1 VL with F31I, S32R, D97T
B20: 4B7 HC D62R+H107M+Y112D/LC F31I+D33R+N35I (Fab, V domains shown)
VH: B1 VH with Q62R
VL: B1 VL with F31I, F33R
B21: 4B7 HC N32D+D62Q+H107M+Y112D/LC F31I+S32R+D33R+N35I+D97T (Fab, V domains shown)
VH: B1 VH with N32D
VL: B1 VL with F31I, S32R, F33R, D97T
B22: 4B7 HC N32D+D62Q+Y112D/LC S32R+D33R+N35I (Fab, V domains shown)
VH: B1 VH with N32D, M107H
VL: B1 VL with S32R, F33R
B23: 4B7 HC N32D+D62Q+H107M+Y112D/LC D33R+N35T (Fab, V domains shown)
VH: B1 VH with N32D
VL: B1 VL with F33R, I35T
B24: 4B7 HC D62R+H107M+Y112D/LC F31M+D33F (Fab, V domains shown)
VH: B1 VH with Q62R
VL: B1 VL with F31M, I35N
B25: 4B7 HC N32D+D62Q+H107M+Y112D/LC F31M+D33F+N35T+Y37F (Fab, V domains shown)
VH: B1 VH with N32D
VL: B1 VL with F31M, I35T, Y37F
B26: 4B7 HC N32D+D62Q+Y112D/LC F31I+D33F+N35I+S98H (Fab, V domains shown)
VH: B1 VH with N32D, M107H
VL: B1 VL with F31I, S98H
B27: 4B7 HC N32D+D62Q+H107M+Y112D/LC S32R+D33F+N35I (Fab, V domains shown)
VH: B1 VH with N32D
VL: B1 VL with S32R
B28: 4B7 HC N32D+D62Q+Y112D/LC F31M+S32R+D33F+N35I (Fab, V domains shown)
VH: B1 VH with N32D, M107H
VL: B1 VL with F31M, S32R
B29: 4B7 HC N32D+D62R+H103D+H107M+Y112D/LC S32R (Fab, V domains shown)
VH: B1 VH with N32D, Q62R, H103D
VL: B1 VL with S32R, F33D, I35N
B30: 4B7 HC N32D+D62Q+H107M+Y112D/LC S32R+N35T (Fab, V domains shown)
VH: B1 VH with N32D
VL: B1 VL with S32R, F33D, I35T
B31: 4B7 HC D62R+H107M+Y112D/LC F31M+D33F+N35I (Fab, V domains shown)
VH: B1 VH with Q62R
VL: B1 VL with F31M
B32: 4B7 HC N32D+D62Q+Y112D/LC F31I+D33F+N35I+L42Q (Fab, V domains shown)
VH: B1 VH with N32D, M107H
VL: B1 VL with F31I, L42Q
B33: 4B7 HC N32D+D62Q+Y112D/LC F31I+D33F+N35I+K44R (Fab, V domains shown)
VH: B1 VH with N32D, M107H
VL: B1 VL with F31I, K44R
B34: 4B7 HC N32D+D62K+Y112D/LC S32R+D33F+N35I+D97T (Fab, V domains shown)
VH: B1 VH with N32D, Q62K, M107H
VL: B1 VL with S32R, D97T

One test concerns the target T1, mouse tissue factor pathway inhibitor (TFPI) (mouse, UniProt O54819 29-289, limits assumed).
T1 construct: bought; also called mTFPI; murine TFPI
T1 sequence (looked up): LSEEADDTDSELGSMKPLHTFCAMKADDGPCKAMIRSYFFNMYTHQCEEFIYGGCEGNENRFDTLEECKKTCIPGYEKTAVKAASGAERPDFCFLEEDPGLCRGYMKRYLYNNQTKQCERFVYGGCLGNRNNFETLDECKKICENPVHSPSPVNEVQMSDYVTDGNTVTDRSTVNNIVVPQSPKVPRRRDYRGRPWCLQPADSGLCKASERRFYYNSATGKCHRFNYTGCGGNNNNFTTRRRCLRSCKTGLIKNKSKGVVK
Put plainly: competitive ELISA. In general terms: An ELISA detects its analyte on a solid surface through an enzyme-linked reagent.
On to B1, for which the variant/HC_D62R was found to be 31.7 ratio.

As for B2, the variant/HC_D62R was determined as 14.6 ratio.

On to B3, for which the variant/HC_D62R was found to be 24.7 ratio.

As to B4, the variant/HC_D62R is 46.3 ratio.

B5 yielded a variant/HC_D62R of 16.4 ratio.

Turning to B6, the variant/HC_D62R was found to be 24.6 ratio.

B7 came in with a variant/HC_D62R of 50.3 ratio.

Take B8: the variant/HC_D62R stood at 13.4 ratio.

The molecule B9 returned a variant/HC_D62R of 18.4 ratio.

B10 registered a variant/HC_D62R of 36.6 ratio.

The molecule B11 yielded a variant/HC_D62R of 12 ratio.

B12 showed a variant/HC_D62R of 40 ratio.

Turning to B13, the variant/HC_D62R is 16.9 ratio.

B14: the variant/HC_D62R is 4.6 ratio.

With B15, the variant/HC_D62R amounted to 19.4 ratio.

With B16, the variant/HC_D62R stood at 39.9 ratio.

B17 showed a variant/HC_D62R of 31.7 ratio.

In turn, B18 gave a variant/HC_D62R of 38.1 ratio.

For the molecule B19, the variant/HC_D62R came to 18.2 ratio.

B20 displayed a variant/HC_D62R of 35.4 ratio.

The molecule B21 returned a variant/HC_D62R of 11.5 ratio.

In the case of B22, the variant/HC_D62R turned out to be 23.5 ratio.

B23 returned a variant/HC_D62R of 18.8 ratio.

As to B24, the variant/HC_D62R stood at 31.3 ratio.

B25 gave a variant/HC_D62R of 35.3 ratio.

Consider B26, for which the binding result is “no binding”.

B27 returned a variant/HC_D62R of 46.6 ratio.

For B28, the variant/HC_D62R stood at 15.8 ratio.

In turn, B29 showed a variant/HC_D62R of 16 ratio.

As for B30, the variant/HC_D62R came to 27.1 ratio.

As to B31, the variant/HC_D62R was 47 ratio.

As to B32, the variant/HC_D62R is 16.7 ratio.

For the molecule B33, the variant/HC_D62R was determined as 18.5 ratio.

The molecule B34 yielded a variant/HC_D62R of 38.8 ratio.

The target of the next test is T2, human tissue factor pathway inhibitor (TFPI) (human, UniProt P10646 29-304, limits assumed).
T2 construct: bought; also called hTFPI; human TFPI
T2 sequence (looked up): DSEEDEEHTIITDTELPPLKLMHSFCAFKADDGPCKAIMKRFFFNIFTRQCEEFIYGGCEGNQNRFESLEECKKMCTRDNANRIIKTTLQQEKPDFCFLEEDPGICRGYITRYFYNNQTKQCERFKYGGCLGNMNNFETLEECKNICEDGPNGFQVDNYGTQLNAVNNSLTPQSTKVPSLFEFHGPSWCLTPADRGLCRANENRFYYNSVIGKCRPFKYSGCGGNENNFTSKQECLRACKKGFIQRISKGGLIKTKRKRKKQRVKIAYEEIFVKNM
Put plainly: competitive ELISA.
With B1, the variant/HC_D62R amounted to 22.7 ratio.

The molecule B2 had a variant/HC_D62R of 13.6 ratio.

For the molecule B3, the variant/HC_D62R is 24.9 ratio.

As to B4, the variant/HC_D62R is 27.3 ratio.

Molecule B5 yielded a variant/HC_D62R of 22.2 ratio.

Turning to B6, the variant/HC_D62R was 22.9 ratio.

For the molecule B7, the variant/HC_D62R was 24.1 ratio.

The molecule B8 yielded a variant/HC_D62R of 17.2 ratio.

On to B9, for which the variant/HC_D62R was determined as 14 ratio.

In turn, B10 had a variant/HC_D62R of 20 ratio.

As for B11, the variant/HC_D62R was determined as 19 ratio.

B12 gave a variant/HC_D62R of 23.2 ratio.

B13 gave a variant/HC_D62R of 23.2 ratio.

Take B14: the variant/HC_D62R came to 14.4 ratio.

For B15, the variant/HC_D62R amounted to 20.1 ratio.

As to B16, the variant/HC_D62R was 21.9 ratio.

As to B17, the variant/HC_D62R came out at 18.2 ratio.

For B18, the variant/HC_D62R was determined as 23.6 ratio.

Regarding B19, the variant/HC_D62R was 20.4 ratio.

In the case of B20, the variant/HC_D62R stood at 22 ratio.

As to B21, the variant/HC_D62R is 20.2 ratio.

B22 yielded a variant/HC_D62R of 21.4 ratio.

As for B23, the variant/HC_D62R is 23.7 ratio.

B24: the variant/HC_D62R was 24.2 ratio.

Consider B25, for which the variant/HC_D62R came out at 19.4 ratio.

The molecule B26 had a variant/HC_D62R of 13.5 ratio.

On to B27, for which the variant/HC_D62R was 24.7 ratio.

B28 registered a variant/HC_D62R of 20.8 ratio.

In turn, B29 came in with a variant/HC_D62R of 17.7 ratio.

On to B30, for which the variant/HC_D62R worked out at 25 ratio.

B31 displayed a variant/HC_D62R of 30.9 ratio.

Take B32: the variant/HC_D62R came to 21.4 ratio.

With B33, the variant/HC_D62R came to 22.8 ratio.

B34 registered a variant/HC_D62R of 22.7 ratio.
